Among the targets are Ec Hfq K31W (Escherichia coli, UniProt P0A6X3 1-102, K31W); Sa Hfq WT (Staphylococcus aureus, UniProt A0A0H3JV59 1-77); Ec Hfq Q95W (Escherichia coli, UniProt P0A6X3 1-102, Q95W); Ec Hfq F39W (Escherichia coli, UniProt P0A6X3 1-102, F39W); Ec Hfq Y25W (Escherichia coli, UniProt P0A6X3 1-102, Y25W); Sa Hfq F25W (Staphylococcus aureus, UniProt A0A0H3JV59 1-77, F25W); Sa Hfq Q31W (Staphylococcus aureus, UniProt A0A0H3JV59 1-77, Q31W); Hfq WT (Escherichia coli, UniProt P0A6X3 1-102); Ec Hfq F11W (Escherichia coli, UniProt P0A6X3 1-102, F11W); Ec Hfq R17W (Escherichia coli, UniProt P0A6X3 1-102, R17W); Ec Hfq Q33W (Escherichia coli, UniProt P0A6X3 1-102, Q33W); Ec Hfq G77W (Escherichia coli, UniProt P0A6X3 1-102, G77W); Ec Hfq Y83W (Escherichia coli, UniProt P0A6X3 1-102, Y83W).

What all share (test): fluorescence polarization

B1: U6 (fluorescein) (ssRNA)
RNA: UUUUUU
On to B1, for which the Kd with Ec Hfq K31W came to 1120 ± 73 nM; with Ec Hfq Q95W, 848 ± 289 nM; in the data set with Ec Hfq F39W, 2000 ± 400 nM; in the data set with Ec Hfq Y25W, 837 ± 62.5 nM; with Sa Hfq F25W, 41.9 ± 25.1 nM; with Sa Hfq Q31W, 114 ± 23.2 nM. The Kd was 766 ± 73.7 nM in the data set with Hfq WT; 503 ± 55.5 nM in the data set with Ec Hfq F11W; 1600 ± 80 nM with Ec Hfq R17W; 405 ± 182 nM with Ec Hfq Q33W; 380 ± 93.2 nM in the data set with Ec Hfq G77W; 778 ± 254 nM with Ec Hfq Y83W. For the same molecule, the binding result with Sa Hfq WT is given as “binds”.
